Measured values reported in patent US20250339529A1 (MINK THERAPEUTICS, published 2025).
Changes are numbered by the printed parent chain. Numbers in names are those of the source.

Legend:
BCMA-Fc antigen [1] = target: T1, BCMA-Fc antigen (UniProt Q02223 1-54); assay: flow cytometry, lentivirally transduced iNKT cells stained with BCMA-Fc and A647 anti-human IgG Fc; Donor 1, Transduced; Non transduced control 2.00
T1 construct: Immobilized on a protein A chip
T1 sequence (looked up): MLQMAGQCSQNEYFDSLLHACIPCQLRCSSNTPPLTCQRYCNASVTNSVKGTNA
Description: (§1) Purified and a-GalCer expanded iNKT cells from 2 donors were stimulated with TransAct (Miltenyi) and transduced with lentivirus (MOI 3) encoding for various 2nd Generation BCMA-CAR molecule and secreted IL-15. Constructs including F6G-Var2 IL-15, F6G variant 2 (no IL-15), F1G-IL-15, bb2121-IL-15, and CD19-CAR-IL-15 were tested. Cells were expanded for 10 to 12 days then transduced cells were co-cultured with K562 cells expressing BCMA at a ratio iNKT:K562 of 1:1. Cells were cultured and enriched with media supplemented with supporting cytokines IL-2 (100 IU/mL), IL-15 (100 UI/mL) and IL-21 (20 IU/mL). […]
(§2) Transduced cells pre-co-culture and enriched cells post co-culture with K562-BCMA were analyzed for CAR expression by flow cytometry (FIG. 17). iNKT cells were incubated with a LIVE/DEAD (Biolegend) reagents to separate live from dead cells and then stained for cell surface markers BCMA-CAR or CD19-CAR, BUV395 CD8 (BD, clone RPA-T8) and BUV563 CD4 (BD, clone OKT4). BCMA-CAR expression was detected with an unconjugated, primary BCMA-Fc reagent (AcroBiosystems) while CD19 CAR expression was detected with an unconjugated, primary CD19-Fc reagent (AcroBiosystems). […]

BCMA-Fc antigen [2] = target: T1, BCMA-Fc antigen; assay: flow cytometry, lentivirally transduced iNKT cells stained with BCMA-Fc and A647 anti-human IgG Fc; Donor 2, Transduced; Non transduced control 0.74
Description: as §1, §2

BCMA-Fc antigen [3] = target: T1, BCMA-Fc antigen; assay: flow cytometry, lentivirally transduced iNKT cells stained with BCMA-Fc and A647 anti-human IgG Fc; Donor 1, Enriched on K562-BCMA; Non transduced control 7.76
Description: as §1, §2

BCMA-Fc antigen [4] = target: T1, BCMA-Fc antigen; assay: flow cytometry, lentivirally transduced iNKT cells stained with BCMA-Fc and A647 anti-human IgG Fc; Donor 2, Enriched on K562-BCMA; Non transduced control 1.34
Description: as §1, §2

BCMA antigen [5] = target: T2, BCMA antigen (UniProt Q02223 1-54, limits assumed); assay: SPR (Biacore T200), IgG captured on a protein A chip, huBCMA as analyte, 1:1 Binding model, 25 C
T2 construct: also called wild type BCMA
T2 sequence (looked up): T1 sequence (looked up)
Description: (§3) To test the affinity of BCMA F6G variants their binding domains were expressed as IgGs and captured to a protein A chip. BCMA antigen was flowed over the chip at […] concentrations. Experiment was run on Biacore T200. […] The CARs were expressed as IgGs and captured to a protein A chip. BCMA antigen was flowed over the chip at […]. concentrations. Experiment was run on Biacore T200.

BCMA antigen [6] = target: T2, BCMA antigen; assay: flow cytometry, iNKT cells transiently transfected with BCMA CAR-RFP mRNA and stained with soluble BCMA-APC, two donors
Description: INKT cells from two donors were transiently transfected with F6G variants and anti-BCMA-CAR iNKT cell-mediated killing of tumor cells were tested. Flow cytometry analysis of RFP expression to show CAR expression and antigen binding with BCMA-APC in BCMA-CAR iNKTs (FIGS. 13A-13C). The level of BCMA expression on each tumor cell line was assessed by flow cytometry where left peak show isotype staining and right peak show BCMA expression (FIG. 13D). iNKT cells expressing anti-BCMA CAR (as shown in FIG. 13A) were co-cultured with tumor cell lines endogenously expressing BCMA or K562 for 24 hrs at 3 different effector-to-target ratios. After 24 hr co-coculture, cytotoxicity assay was analyzed by flow cytometry for percentage of dead target cells (FIG. 13E), percentage of CD69/CD25 co-expressing iNKT cells (FIG. 13F) and percentage of 4-1BB expressing iNKT cells (FIG. 13G).

BCMA antigen [7] = target: T2, BCMA antigen; assay: SPR (Biacore 4000), cell-free expressed scFv on BCMA antigen
Text: Further, a germlined version of F6 (F6G) was affinity matured by a combination of two methods: Accelerated Drug Discovery (ADD) approach and affinity maturation of by phage libraries. FIGS. 9A-9C describe the ADD approach. FIG. 9A is a schematic representation of the CDR positions undergone mutagenesis. Each amino acid in the heavy and light CDRs was substituted with 8 different amino acids; Tyr, Ser, Pro, Leu, his, Gly, Asp, Asn. Fragments containing single amino acids substitutions were generated by mutagenesis PCR. The PCR fragments were then used as a template to express the scFv in a cell free system. Affinity KD (M) values of mutant scFvs binding to BCMA antigen. Experiment was run in Biacore 4000. The dotted line indicates the binding of the parental F6G clone. KD below the dotted line means improvement in affinity. […] Individual Biacore sensorgrams for E to Y substitution in position 49 of CDRL2 are shown (FIG. 9C).

BCMA antigen [8] = target: T2, BCMA antigen; assay: SPR (Biacore T200), IgG captured on a protein A chip, huBCMA as analyte, 1:1 Binding model, 25 C; same panel as in FIG. 11
Description: as §3

## bb2121 CAR on iNKT cells (clinical benchmark)
BCMA-Fc antigen [1]
  % of cells in the CAR+ gate: 15.9%
BCMA-Fc antigen [2]
  % of cells in the CAR+ gate: 36.2%
BCMA-Fc antigen [3]
  % of cells in the CAR+ gate: 95.5%
BCMA-Fc antigen [4]
  % of cells in the CAR+ gate: 94.1%

## Bb2121 huIgG1 (antibody)
BCMA antigen [5]
  Kd: 1.67 nM
  koff: 0.00484 s⁻¹
  kon: 2.89e+06 M⁻¹ s⁻¹

B1: F6G-Var1 (other)
CAR polypeptide: QVQLVQSGAEVKKPGASVKVSCKASGYTFTGYYMHWVRQAPGQGLEWMGWMNPNSGNTGYAQKFQGRVTMTRNTSISTAYMELSSLRSEDTAVYYCARAQWEPLDYWGQGTLVTVSSGGGGSGGGGSGGGASSYELTQPPSVSVSPGQTARITCSGDALPKKYTYWYQQKSGQAPVLVIYYDTKRPSGIPERFSGSSSGTMATLTISGAQVEDEADYYCLSTDPTGQESVFGGGTKLTVLGQPAAATTTPAPRPPTPAPTIASQPLSLRPEACRPAAGGAVHTRGLDFACDIYIWAPLAGTCGVLLLSLVITLYCKRGRKKLLYIFKQPFMRPVQTTQEEDGCSCRFPEEEEGGCELRVKFSRSADAPAYQQGQNQLYNELNLGRREEYDVLDKRRGRDPEMGGKPRRKNPQEGLYNELQKDKMAEAYSEIGMKGERRRGKGHDGLYQGLSTATKDTYDALHMQALPPR
notes: also called F6G-Var1 CAR on iNKT cells (transient, CAR-RFP mRNA)
BCMA antigen [6]
  binding result: binds

B2: F6G (other)
CAR polypeptide: B1 CAR polypeptide with Y181E
notes: also called F6G CAR on iNKT cells (transient, CAR-RFP mRNA)
BCMA antigen [6]
  binding result: binds

B3: F6G-Var3 (other)
CAR polypeptide: B1 CAR polypeptide with H35Q, N54I, D223N, Q227H
notes: also called F6G-Var3 CAR on iNKT cells (transient, CAR-RFP mRNA)
BCMA antigen [6]
  binding result: binds

B4: F6G-Var6 (other)
CAR polypeptide: B1 CAR polypeptide with G31E, H35K, S55T, N57K
notes: also called F6G-Var6 CAR on iNKT cells (transient, CAR-RFP mRNA)
BCMA antigen [6]
  binding result: binds

B5: F6G-Var5 (other)
CAR polypeptide: B1 CAR polypeptide with D223N, Q227H
notes: also called F6G-Var5 CAR on iNKT cells (transient, CAR-RFP mRNA)
BCMA antigen [6]
  binding result: binds

B6: F6G-Var4 (other)
CAR polypeptide: B1 CAR polypeptide with D223H, T225A
notes: also called F6G-Var4 CAR on iNKT cells (transient, CAR-RFP mRNA)
BCMA antigen [6]
  binding result: binds

B7: F1G scFv CAR on iNKT cells (other)
chain: QVQLVQSGAEVKKPGASVKVSCKASGYTFTSYGISWVRQAPGQGLEWMGWISAYNGNTYYAEDLQGRLTMTTDTSTSTAYMELRSLRSDDTAVYYCAREGSYYDSSGYYLPYWGQGTLVTVSSGGGGSGGGGSGGGASQSALTQPRSVSGSPGQSVTISCTGTSSDVGAYNYVSWYQQHPGKAPKLMIYDVTERPSGVPDRFSGSKSGNTASLTISGLQAEDEADYYCSSYTSSSIAFGGGTKLTVLGQPAAATTTPAPRPPTPAPTIASQPLSLRPEACRPAAGGAVHTRGLDFACDIYIWAPLAGTCGVLLLSLVITLYCKRGRKKLLYIFKQPFMRPVQTTQEEDGCSCRFPEEEEGGCELRVKFSRSADAPAYQQGQNQLYNELNLGRREEYDVLDKRRGRDPEMGGKPRRKNPQEGLYNELQKDKMAEAYSEIGMKGERRRGKGHDGLYQGLSTATKDTYDALHMQALPPR
notes: Chimeric antigen receptor on iNKT cells with secreted IL-15; also called F1G-IL-15; F1G IL-15
BCMA-Fc antigen [1]
  % of cells in the CAR+ gate: 20.7%
BCMA-Fc antigen [2]
  % of cells in the CAR+ gate: 20.9%
BCMA-Fc antigen [3]
  % of cells in the CAR+ gate: 31.4%
BCMA-Fc antigen [4]
  % of cells in the CAR+ gate: 93.1%

B8: F6G scFv (germlined F6, parental clone of the ADD mutagenesis) (scFv)
scFv: QVQLVQSGAEVKKPGASVKVSCKASGYTFTGYYMHWVRQAPGQGLEWMGWMNPNSGNTGYAQKFQGRVTMTRNTSISTAYMELSSLRSEDTAVYYCARAQWEPLDYWGQGTLVTVSSGGGGSGGGGSGGGASSYELTQPPSVSVSPGQTARITCSGDALPKKYTYWYQQKSGQAPVLVIYEDTKRPSGIPERFSGSSSGTMATLTISGAQVEDEADYYCLSTDPTGQESVFGGGTKLTVLGQP
notes: scFv expressed in a cell free system from PCR fragments; also called parental F6G clone; germline F6G
BCMA antigen [7]
  binding result: binds

B9: F6G scFv with E to Y substitution in position 49 of CDRL2 (scFv)
scFv: B8 scFv with E181Y
notes: Cell free expressed scFv; also called E to Y substitution in position 49 of light CDRL2
BCMA antigen [7]
  binding result: binds

B10: F6Gvar2 (antibody, V domains shown)
VH: QVQLVQSGAEVKKPGASVKVSCKASGYTFTGYYMQWVRQAPGQGLEWMGWMNPISGNTGYAQKFQGRVTMTRNTSISTAYMELSSLRSEDTAVYYCARAQWEPLDYWGQGTLVTVSS
VL: SYELTQPPSVSVSPGQTARITCSGDALPKKYTYWYQQKSGQAPVLVIYYDTKRPSGIPERFSGSSSGTMATLTISGAQVEDEADYYCLSTHPAGQESVFGGGTKLTVLG
BCMA antigen [5]
  Kd: 2.35 nM
  koff: 0.000325 s⁻¹
  kon: 138000 M⁻¹ s⁻¹
BCMA antigen [8]
  Kd: 2.35 nM
  koff: 0.000325 s⁻¹
  kon: 138000 M⁻¹ s⁻¹

B11: F6Gvar3 (antibody, V domains shown)
VH: B10 VH
VL: B10 VL with H91N, A93T, Q95H
BCMA antigen [5]
  Kd: 2.12 nM
  koff: 0.000317 s⁻¹
  kon: 150000 M⁻¹ s⁻¹

B12: F6G huIgG1 (antibody, V domains shown)
VH: B10 VH with Q35H, I54N
VL: B10 VL with Y49E, H91D, A93T
notes: also called germline F6G expressed as human IgG1
BCMA antigen [5]
  Kd: 97.8 nM
  koff: 0.0197 s⁻¹
  kon: 201000 M⁻¹ s⁻¹
